The series deals with the molecule itself. Kind of series: size exclusion chromatography, self-association.

B1: FabA-Linker-FabZ fused heterodimer (enzyme)
chain: MVDKRESYTKEDLLASGRGELFGAKGPQLPAPNMLMMDRVVKMTETGGNFDKGYVEAELDINPDLWFFGCHFIGDPVMPGCLGLDAMWQLVGFYLGWLGGEGKGRALGVGEVKFTGQVLPTAKKVTYRIHFKRIVNRRLIMGLADGEVLVDGRLIYTASDLKVGLFQDTSAFSTQNVAIQTAAPVASASNGLDAAQVQGTMTTNTHTLQIEEILELLPHRFPFLLVDRVLDFEEGRFLRAVKNVSVNEPFFQGHFPGKPIFPGVLILEAMAQATGILAFKSVGKLEPGELYYFAGIDEARFKRPVVPGDQMIMEVTFEKTRRGLTRFKGVALVDGKVVCEATMMCARSREA
notes: Single-chain fusion, His-tagged, purified from E. coli; By SEC and SAXS the chain self-associates into a higher oligomer of about 400 kDa; The number of copies is not settled: 'possibly decamers', and nonamers in computational models; also called FabA-FabZ; FabA-peptide linker-FabZ; not shown: His tag from vector pET-200/TOPO
For the protein B1, the binding result is given as “binds”.

B2: FabZ-Linker-FabZ fused homodimer (enzyme)
chain: MTTNTHTLQIEEILELLPHRFPFLLVDRVLDFEEGRFLRAVKNVSVNEPFFQGHFPGKPIFPGVLILEAMAQATGILAFKSVGKLEPGELYYFAGIDEARFKRPVVPGDQMIMEVTFEKTRRGLTRFKGVALVDGKVVCEATMMCARSREASTQNVAIQTAAPVASASNGLDAAQVQGTMTTNTHTLQIEEILELLPHRFPFLLVDRVLDFEEGRFLRAVKNVSVNEPFFQGHFPGKPIFPGVLILEAMAQATGILAFKSVGKLEPGELYYFAGIDEARFKRPVVPGDQMIMEVTFEKTRRGLTRFKGVALVDGKVVCEATMMCARSREA
notes: Single-chain fusion; By SEC it elutes as a trimer of fused dimers, so three copies of this chain, at about 116 kDa; also called FabZ-FabZ; FabZFabZ; not shown: His tag from vector pET-200/TOPO
In the case of B2, the binding result is “binds”.

The record behind these values is US20220403424A1 (UNIVERSITY OF PUERTO RICO, published 2022).
